In the assay the target is BCL6-POZ domain (residues 7 to 128 of human BCL6, C8Q, C67R, C84N) (human, UniProt P41182 7-128, cysteine8 mutated to glutamine | cysteine67 mutated to arginine | cysteine84 …). Description: FP.

The text below walks through data of publication PMC3942486 (2014).

B1: homophenylalanine-SMRT peptide, labelled with BODIPY TMR (peptide)
chain: LVATVKEAGRSIXEIPR
modifications: homophenylalanine in place of histidine1426; BODIPY TMR dye coupled via the amino-terminal cysteine
In the case of B1, the affinity, expressed as Kd, was 43 µM.

B2: styryl-SMRT peptide, labelled with BODIPY TMR (peptide)
chain: LVATVKEAGRSIXEIPR
modifications: styrylalanine in place of histidine1426; BODIPY TMR dye coupled via the amino-terminal cysteine
As to B2, the equilibrium dissociation constant (Kd) worked out at 41 µM.

One may read the Kd as the free concentration of one partner at which half of the binding sites on the other are occupied at equilibrium, for simple one-to-one binding. A low value points to a tighter complex.
